Assay results taken from publication doi:10.1101/2025.10.04.680454.
Blank lines part the entries; values can stand above or below the binder they belong to.

Columns and labels:
[1] = target: Mb-1 P29S displayed on the yeast cell surface (minibinder-HA-AGA2); assay: flow cytometry on cells
[2] = target: Mb-1 A14V displayed on the yeast cell surface (minibinder-HA-AGA2); assay: flow cytometry on cells
[3] = target: evolved Mb-1 (affinity matured variant), N-terminal polyhistidine tag; assay: SPR
[4] = target: Mb-1 (parental minibinder), N-terminal polyhistidine tag; assay: SPR
[5] = target: all four evolved minibinders (purified proteins); assay: SPR
[6] = target: Mb-4 (parental minibinder), N-terminal polyhistidine tag; assay: SPR

Δ-log10[KD] against parental Mb-1 [1]: 0.03
Δ-log10[KD] against parental Mb-1 [2]: 1.18
B1: human IL-7Rα fused to a human IgG single-chain Fc tag (Fc fusion)
chain: ESGYAQNGDLEDAELDDYSFSCYSQLEVNGSQHSLTCAFEDPDVNITNLEFEICGALVEVKCLNFRKLQEIYFIETKKFLLIGKSNICVKVGEKSLTCKKIDLTTIVKPEAPFDLSVVYREGANDFVVTFNTSHLQKKYVKVLMHDVAYRQEKDENKWTHVNLSSTKLTLLQRKLQPAAMYEIKVRSIPDHYFKGFWSEWSPSYYFRTPEINNSSGEMD

Kd [3]: 2.1 nM
Kd [4]: > 1000 nM
Kd [5]: 0.56 to 34 nM
Kd [6]: 7.8 nM
B2: human IL-7Rα extracellular domain (residues 37-231) with a C-terminal C-tag (domain or fragment)
chain: DYSFSCYSQLEVNGSQHSLTCAFEDPDVNITNLEFEICGALVEVKCLNFRKLQEIYFIETKKFLLIGKSNICVKVGEKSLTCKKIDLTTIVKPEAPFDLSVVYREGANDFVVTFNTSHLQKKYVKVLMHDVAYRQEKDENKWTHVNLSSTKLTLLQRKLQPAAMYEIKVRSIPDHYFKGFWSEWSPSYYFRTPEI
